Experimental data from EP1391213A1.

B1: BIWA 4 (antibody, human IgG1, kappa, V domains shown)
VH: EVQLVESGGGLVKPGGSLRLSCAASGFTFSSYDMSWVRQAPGKGLEWVSTISSGGSYTYYLDSIKGRFTISRDNAKNSLYLQMNSLRAEDTAVYYCARQGLDYWGRGTLVTVSS
VL: EIVLTQSPATLSLSPGERATLSCSASSSINYIYWYQQKPGQAPRLLIYLTSNLASGVPARFSGSGSGTDFTLTISSLEPEDFAVYYCLQWSSNPLTFGGGTKVEIKR
B2: BIWI 1 (antibody, human IgG1, kappa, V domains shown)
VH: B1 VH
VL: B1 VL
modifications: maytansinoid DM1 linked by a disulfide bond through the SPP-derived thiopentanoate linker; DM1/MAb ratio 3.1 (average for the whole antibody); attachment residues not stated

Molecular target: human CD44v6 (CD44 splice variant containing the domain v6) on antigen-positive FaDu cells (human) (UniProt P16070)
Sequence of UniProt P16070 (P16070 21-742, change not shown): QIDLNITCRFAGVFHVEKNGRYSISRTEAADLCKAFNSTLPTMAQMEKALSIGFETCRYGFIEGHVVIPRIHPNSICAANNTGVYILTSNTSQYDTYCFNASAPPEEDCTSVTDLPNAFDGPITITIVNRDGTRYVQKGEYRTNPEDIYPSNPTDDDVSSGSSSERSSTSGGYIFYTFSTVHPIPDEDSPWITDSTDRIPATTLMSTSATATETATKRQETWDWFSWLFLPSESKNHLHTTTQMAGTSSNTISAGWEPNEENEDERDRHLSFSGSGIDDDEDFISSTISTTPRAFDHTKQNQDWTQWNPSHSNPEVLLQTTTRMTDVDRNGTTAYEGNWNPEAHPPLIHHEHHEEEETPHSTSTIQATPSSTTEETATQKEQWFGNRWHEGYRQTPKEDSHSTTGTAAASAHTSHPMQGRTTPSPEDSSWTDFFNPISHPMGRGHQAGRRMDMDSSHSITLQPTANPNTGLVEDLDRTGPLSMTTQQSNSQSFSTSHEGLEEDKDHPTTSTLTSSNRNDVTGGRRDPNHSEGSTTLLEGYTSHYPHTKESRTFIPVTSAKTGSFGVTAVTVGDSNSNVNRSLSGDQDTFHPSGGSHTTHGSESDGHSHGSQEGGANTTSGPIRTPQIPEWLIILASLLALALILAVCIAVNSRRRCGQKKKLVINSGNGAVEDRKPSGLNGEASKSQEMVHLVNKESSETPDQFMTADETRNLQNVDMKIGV
Assay: flow cytometry (FACS) on FaDu cells, FITC-labeled anti-human IgG detection, on ice

Row | Kd [nM] | Binder
1 | 1 | B1
2 | 1.8 | B2
